# Experimental data reported in the Immune Epitope Database (IEDB).
# Experiments:
# HLA-A*01:01 [1] = experiment: IEDB peptide-MHC binding, purified MHC/direct/fluorescence; filed as Kd, often an IC50 or EC50 that approximates it; ≥ and ≤ were set here for values at or beyond the usual limits of such assays
# HLA-A*02:01 = experiment: as above
# HLA-A*03:01 = experiment: as above
# HLA-A*11:01 = experiment: as above
# HLA-A*24:03 = experiment: as above
# HLA-A*26:01 = experiment: as above
# HLA-A*30:01 = experiment: as above
# HLA-A*31:01 = experiment: as above
# HLA-A*69:01 = experiment: as above
# HLA-B*08:01 = experiment: as above
# HLA-B*15:01 [2] = experiment: as above
# HLA-B*27:05 = experiment: as above
# HLA-B*35:01 = experiment: as above
# HLA-B*40:01 = experiment: as above
# HLA-B*44:02 = experiment: as above
# HLA-B*58:01 = experiment: as above
# HLA-B*07:02 = experiment: as above
# HLA-A*26:02 = experiment: as above
# HLA-A*26:03 = experiment: as above
# HLA-A*68:02 [3] = experiment: as above
# HLA-B*15:17 [4] = experiment: as above
# HLA-B*18:01 = experiment: as above
# HLA-B*39:01 = experiment: as above
# HLA-B*48:01 = experiment: as above
# HLA-B*57:01 [5] = experiment: as above
# HLA-B*08:02 = experiment: as above; details: source organism: Giardia lamblia ATCC 50803
# HLA-B*46:01 = experiment: as above; details: source organism: Giardia lamblia ATCC 50803
# HLA-A*01:01 [6] = experiment: IEDB peptide-MHC binding, purified MHC/competitive/fluorescence; filed as Kd, often an IC50 or EC50 that approximates it; ≥ and ≤ were set here for values at or beyond the usual limits of such assays; details: source organism: Giardia lamblia ATCC 50803
# HLA-A*68:02 [7] = experiment: as above; details: source organism: Giardia lamblia ATCC 50803
# HLA-B*15:01 [8] = experiment: as above; details: source organism: Giardia lamblia ATCC 50803
# HLA-B*15:17 [9] = experiment: as above; details: source organism: Giardia lamblia ATCC 50803
# HLA-B*57:01 [10] = experiment: as above; details: source organism: Giardia lamblia ATCC 50803
# HLA-B*73:01 = experiment: IEDB peptide-MHC binding, purified MHC/direct/fluorescence; filed as Kd, often an IC50 or EC50 that approximates it; ≥ and ≤ were set here for values at or beyond the usual limits of such assays; details: source organism: Vibrio vulnificus YJ016
# [11] = source organism: Giardia lamblia ATCC 50803
# [12] = source organism: Escherichia coli O157:H7
# [13] = source organism: Giardia intestinalis
# [14] = source organism: Influenza A virus (A/swine/Italy/809/1989(H3N2))
# [15] = source organism: Influenza A virus H3N2
# [16] = source organism: Rickettsia prowazekii
# [17] = source organism: Vibrio vulnificus YJ016
sequence,measurement,setting,value
FMGRLGPEY,Kd,HLA-A*01:01 [1]; [11],4.09 µM
same,Kd,HLA-A*02:01; [11],≥ 20 µM
same,Kd,HLA-A*03:01; [11],≥ 20 µM
same,Kd,HLA-A*11:01; [11],≥ 20 µM
same,Kd,HLA-A*24:03; [11],≥ 5 µM
same,Kd,HLA-A*26:01; [11],≥ 20 µM
same,Kd,HLA-A*30:01; [11],16.1 µM
same,Kd,HLA-A*31:01; [11],≥ 20 µM
same,Kd,HLA-A*69:01; [11],≥ 20 µM
same,Kd,HLA-B*08:01; [11],≥ 20 µM
same,Kd,HLA-B*15:01 [2]; [11],0.14 µM
same,Kd,HLA-B*27:05; [11],≥ 20 µM
same,Kd,HLA-B*35:01; [11],0.117 µM
same,Kd,HLA-B*40:01; [11],≥ 20 µM
same,Kd,HLA-B*44:02; [11],≥ 20 µM
same,Kd,HLA-B*58:01; [11],≥ 20 µM
PSSKPDWFY,Kd,HLA-A*01:01 [1]; [12],0.0197 µM
same,Kd,HLA-A*02:01; [12],≥ 20 µM
same,Kd,HLA-A*03:01; [12],≥ 20 µM
same,Kd,HLA-A*11:01; [12],≥ 20 µM
same,Kd,HLA-A*24:03; [12],≥ 20 µM
same,Kd,HLA-A*26:01; [12],≥ 20 µM
same,Kd,HLA-A*31:01; [12],≥ 20 µM
same,Kd,HLA-A*69:01; [12],≥ 20 µM
same,Kd,HLA-B*07:02; [12],≥ 20 µM
same,Kd,HLA-B*08:01; [12],≥ 20 µM
same,Kd,HLA-B*15:01 [2]; [12],15.2 µM
same,Kd,HLA-B*27:05; [12],≥ 20 µM
same,Kd,HLA-B*35:01; [12],1.04 µM
same,Kd,HLA-B*40:01; [12],≥ 20 µM
same,Kd,HLA-B*44:02; [12],≥ 20 µM
same,Kd,HLA-B*58:01; [12],≥ 20 µM
DYAMHGTVF,Kd,HLA-A*01:01 [1]; [13],≥ 20 µM
same,Kd,HLA-A*02:01; [13],≥ 20 µM
same,Kd,HLA-A*03:01; [13],≥ 20 µM
same,Kd,HLA-A*24:03; [13],2.36 µM
same,Kd,HLA-A*26:01; [13],≥ 20 µM
same,Kd,HLA-A*30:01; [13],≥ 58.5 µM
same,Kd,HLA-A*69:01; [13],≥ 20 µM
same,Kd,HLA-B*07:02; [13],8.71 µM
same,Kd,HLA-B*08:01; [13],14.6 µM
same,Kd,HLA-B*15:01 [2]; [13],3.8 µM
same,Kd,HLA-B*27:05; [13],≥ 20 µM
same,Kd,HLA-B*35:01; [13],0.0621 µM
same,Kd,HLA-B*40:01; [13],≥ 20 µM
same,Kd,HLA-B*44:02; [13],≥ 20 µM
same,Kd,HLA-B*58:01; [13],≥ 10 µM
EEIRRIWRQ,Kd,HLA-A*01:01 [1]; [14],≥ 20 µM
same,Kd,HLA-A*02:01; [14],≥ 20 µM
same,Kd,HLA-A*03:01; [14],≥ 20 µM
same,Kd,HLA-A*11:01; [14],≥ 20 µM
same,Kd,HLA-A*26:02; [15],≥ 20 µM
same,Kd,HLA-A*26:03; [15],≥ 20 µM
same,Kd,HLA-A*31:01; [14],≥ 20 µM
same,Kd,HLA-A*68:02 [3]; [14],≥ 20 µM
same,Kd,HLA-A*69:01; [14],≥ 20 µM
same,Kd,HLA-B*07:02; [14],≥ 20 µM
same,Kd,HLA-B*15:01 [2]; [14],≥ 20 µM
same,Kd,HLA-B*15:17 [4]; [14],≥ 20 µM
same,Kd,HLA-B*18:01; [14],9.02 µM
same,Kd,HLA-B*27:05; [14],≥ 20 µM
same,Kd,HLA-B*39:01; [15],≥ 20 µM
same,Kd,HLA-B*40:01; [14],≥ 20 µM
same,Kd,HLA-B*44:02; [14],≥ 20 µM
same,Kd,HLA-B*48:01; [14],≥ 20 µM
same,Kd,HLA-B*57:01 [5]; [14],≥ 20 µM
same,Kd,HLA-B*58:01; [14],≥ 20 µM
KSNRIPFLY,Kd,HLA-A*02:01; [11],≥ 20 µM
same,Kd,HLA-A*03:01; [11],0.022 µM
same,Kd,HLA-A*11:01; [11],0.007 µM
same,Kd,HLA-A*26:01; [11],≥ 20 µM
same,Kd,HLA-A*26:02; [11],≥ 20 µM
same,Kd,HLA-A*26:03; [11],≥ 20 µM
same,Kd,HLA-A*31:01; [11],2.37 µM
same,Kd,HLA-B*07:02; [11],≥ 20 µM
same,Kd,HLA-B*08:01; [11],≥ 20 µM
same,Kd,HLA-B*08:02,≥ 20 µM
same,Kd,HLA-B*18:01; [11],≥ 20 µM
same,Kd,HLA-B*27:05; [11],≥ 20 µM
same,Kd,HLA-B*40:01; [11],≥ 20 µM
same,Kd,HLA-B*46:01,≥ 20 µM
same,Kd,HLA-B*48:01; [11],≥ 20 µM
same,Kd,HLA-B*58:01; [11],0.002 µM
same,Kd,HLA-A*01:01 [6],0.203 µM
same,Kd,HLA-A*68:02 [7],≥ 20 µM
same,Kd,HLA-B*15:01 [8],0.212 µM
same,Kd,HLA-B*15:17 [9],0.01 µM
same,Kd,HLA-B*57:01 [10],0.243 µM
QFAGGSFDF,Kd,HLA-A*01:01 [1]; [16],≥ 20 µM
same,Kd,HLA-A*02:01; [16],≥ 20 µM
same,Kd,HLA-A*03:01; [16],≥ 20 µM
same,Kd,HLA-A*11:01; [16],≥ 10 µM
same,Kd,HLA-A*24:03; [16],0.336 µM
same,Kd,HLA-A*26:01; [16],≥ 20 µM
same,Kd,HLA-A*69:01; [16],≥ 20 µM
same,Kd,HLA-B*07:02; [16],≥ 20 µM
same,Kd,HLA-B*08:01; [16],≥ 20 µM
same,Kd,HLA-B*15:01 [2]; [16],0.35 µM
same,Kd,HLA-B*35:01; [16],0.0141 µM
same,Kd,HLA-B*40:01; [16],≥ 20 µM
same,Kd,HLA-B*44:02; [16],≥ 20 µM
same,Kd,HLA-B*58:01; [16],0.0416 µM
KRFYQTVGF,Kd,HLA-A*01:01 [1]; [17],≥ 20 µM
same,Kd,HLA-A*02:01; [17],≥ 20 µM
same,Kd,HLA-A*03:01; [17],≥ 20 µM
same,Kd,HLA-A*11:01; [17],≥ 20 µM
same,Kd,HLA-A*26:02; [17],≥ 20 µM
same,Kd,HLA-A*26:03; [17],≥ 20 µM
same,Kd,HLA-A*31:01; [17],≥ 20 µM
same,Kd,HLA-A*68:02 [3]; [17],≥ 20 µM
same,Kd,HLA-A*69:01; [17],≥ 20 µM
same,Kd,HLA-B*07:02; [17],≥ 20 µM
same,Kd,HLA-B*08:01; [17],≥ 20 µM
same,Kd,HLA-B*15:01 [2]; [17],≥ 20 µM
same,Kd,HLA-B*15:17 [4]; [17],≥ 20 µM
same,Kd,HLA-B*18:01; [17],≥ 20 µM
same,Kd,HLA-B*27:05; [17],0.0895 µM
same,Kd,HLA-B*39:01; [17],≥ 20 µM
same,Kd,HLA-B*48:01; [17],≥ 20 µM
same,Kd,HLA-B*57:01 [5]; [17],≥ 20 µM
same,Kd,HLA-B*58:01; [17],≥ 20 µM
same,Kd,HLA-B*73:01,4 µM
